Experimental data published in the supplement of paper PMC9112550, “Optimization of the antimicrobial peptide Bac7 by deep mutational scanning” (BMC Biology, 2022).

tested on: Escherichia coli TOP10; test: shrunken log2 fold change of peptide-encoding DNA abundance (4.5 h post-induction vs induction); higher = less antimicrobial activity (less host growth inhibition); details: time post-induction: 4.5 h; library: site-saturation at positions 5, 18, 19, 20
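Further: peptides expressed intracellularly from a pBAD plasmid library in pooled LB shake-flask culture, induced with 0.3% L-arabinose, DNA abundance read by NGS, three biological replicates, DESeq2 with apeglm shrinkage.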

Sequence	shrunken log2 fold change
RRIRNRPPRLPRPRPRPQCFPRP	0.242
RRIRNRPPRLPRPRPRPAMAPRP	0.0129
RRIRVRPPRLPRPRPRPYKGPRP	-0.294
RRIRCRPPRLPRPRPRPSCFPRP	-0.205
RRIRQRPPRLPRPRPRPQKIPRP	-0.29
RRIRLRPPRLPRPRPRPLGIPRP	-0.199
RRIRPRPPRLPRPRPRPPPAPRP	2.01
RRIRWRPPRLPRPRPRPAHNPRP	0.352
RRIRERPPRLPRPRPRPDQFPRP	-0.154
RRIRNRPPRLPRPRPRPWTSPRP	0.0238
RRIRRRPPRLPRPRPRPRIGPRP	0.0791
RRIRNRPPRLPRPRPRPKLKPRP	0.2
RRIRMRPPRLPRPRPRPCEGPRP	-0.00822
RRIRFRPPRLPRPRPRPHLCPRP	-0.0692
RRIRRRPPRLPRPRPRPPTLPRP	0.739
RRIRWRPPRLPRPRPRPKSGPRP	-0.0248
RRIRGRPPRLPRPRPRPGCFPRP	1.1
RRIRTRPPRLPRPRPRPILSPRP	-0.0676
RRIRIRPPRLPRPRPRPGNCPRP	-0.549
RRIRQRPPRLPRPRPRPHYDPRP	-0.295
RRIRARPPRLPRPRPRPRYAPRP	0.495
RRIRRRPPRLPRPRPRPIYWPRP	0.08
RRIRERPPRLPRPRPRPNGRPRP	-0.033
RRIRKRPPRLPRPRPRPSMTPRP	-0.0765
RRIRRRPPRLPRPRPRPLGTPRP	0.547

Sequence	shrunken log2 fold change
RRIRARPPRLPRPRPRPEQPPRP	0.343
RRIRLRPPRLPRPRPRPHPAPRP	0.12
RRIRCRPPRLPRPRPRPMEDPRP	-0.0146
RRIRPRPPRLPRPRPRPCFMPRP	-0.269
RRIRMRPPRLPRPRPRPYWFPRP	-0.131
RRIRFRPPRLPRPRPRPIEKPRP	-0.0389
RRIRERPPRLPRPRPRPATKPRP	0.156
RRIRARPPRLPRPRPRPCSKPRP	0.0365
RRIRHRPPRLPRPRPRPRKGPRP	0.236
RRIRERPPRLPRPRPRPMSYPRP	-0.00931
RRIRARPPRLPRPRPRPWIKPRP	-0.0328
RRIRSRPPRLPRPRPRPTIWPRP	0.393
RRIRYRPPRLPRPRPRPQVCPRP	-0.00133
RRIRFRPPRLPRPRPRPDDDPRP	0.114
RRIRYRPPRLPRPRPRPHNRPRP	-0.245
RRIRSRPPRLPRPRPRPHKRPRP	0.0245
RRIRDRPPRLPRPRPRPTFHPRP	-0.148
RRIRERPPRLPRPRPRPMAVPRP	0.19
RRIRRRPPRLPRPRPRPCVCPRP	0.082
RRIRGRPPRLPRPRPRPYRCPRP	-0.00655
RRIRIRPPRLPRPRPRPYPMPRP	-0.0519
RRIRVRPPRLPRPRPRPETTPRP	0.348
RRIRYRPPRLPRPRPRPAHNPRP	-0.409
RRIRVRPPRLPRPRPRPYKRPRP	-0.0182
RRIRQRPPRLPRPRPRPFILPRP	-0.635

Sequence	shrunken log2 fold change
RRIRERPPRLPRPRPRPAAPPRP	0.504
RRIRIRPPRLPRPRPRPVSHPRP	0.113
RRIRYRPPRLPRPRPRPADSPRP	-0.212
RRIRRRPPRLPRPRPRPHDIPRP	-0.127
RRIRVRPPRLPRPRPRPPRQPRP	0.583
RRIRSRPPRLPRPRPRPDYSPRP	-0.464
RRIRHRPPRLPRPRPRPINRPRP	0.0787
RRIRRRPPRLPRPRPRPYANPRP	-0.0552
RRIRIRPPRLPRPRPRPTEFPRP	-0.408
RRIRCRPPRLPRPRPRPPLWPRP	0.32
RRIRDRPPRLPRPRPRPNRVPRP	-0.023
RRIRKRPPRLPRPRPRPSVVPRP	0.45
RRIRQRPPRLPRPRPRPLGHPRP	0.0124
RRIRVRPPRLPRPRPRPFTEPRP	-0.423
RRIRDRPPRLPRPRPRPRPEPRP	0.538
RRIRRRPPRLPRPRPRPITKPRP	0.165
RRIRARPPRLPRPRPRPHRSPRP	-0.0655
RRIRPRPPRLPRPRPRPDLSPRP	0.158
RRIRMRPPRLPRPRPRPHQWPRP	0.121
RRIRSRPPRLPRPRPRPEKWPRP	0.0431
RRIRPRPPRLPRPRPRPIFEPRP	0.154
RRIRMRPPRLPRPRPRPTPLPRP	1.01
RRIRGRPPRLPRPRPRPQDWPRP	0.639
RRIRSRPPRLPRPRPRPIRSPRP	0.0127
RRIRQRPPRLPRPRPRPCFTPRP	-0.684
